{
  "source": "patent EP2014310A2",
  "about": "(Dyax Corporation, dated 2009)",
  "data": [
    {"target": "T1, human KDR-Fc fusion (R&D Systems #357-KD-050) (human, UniProt P35968 20-764)", "T1 construct": "bought", "T1 sequence (P35968 20-764)": "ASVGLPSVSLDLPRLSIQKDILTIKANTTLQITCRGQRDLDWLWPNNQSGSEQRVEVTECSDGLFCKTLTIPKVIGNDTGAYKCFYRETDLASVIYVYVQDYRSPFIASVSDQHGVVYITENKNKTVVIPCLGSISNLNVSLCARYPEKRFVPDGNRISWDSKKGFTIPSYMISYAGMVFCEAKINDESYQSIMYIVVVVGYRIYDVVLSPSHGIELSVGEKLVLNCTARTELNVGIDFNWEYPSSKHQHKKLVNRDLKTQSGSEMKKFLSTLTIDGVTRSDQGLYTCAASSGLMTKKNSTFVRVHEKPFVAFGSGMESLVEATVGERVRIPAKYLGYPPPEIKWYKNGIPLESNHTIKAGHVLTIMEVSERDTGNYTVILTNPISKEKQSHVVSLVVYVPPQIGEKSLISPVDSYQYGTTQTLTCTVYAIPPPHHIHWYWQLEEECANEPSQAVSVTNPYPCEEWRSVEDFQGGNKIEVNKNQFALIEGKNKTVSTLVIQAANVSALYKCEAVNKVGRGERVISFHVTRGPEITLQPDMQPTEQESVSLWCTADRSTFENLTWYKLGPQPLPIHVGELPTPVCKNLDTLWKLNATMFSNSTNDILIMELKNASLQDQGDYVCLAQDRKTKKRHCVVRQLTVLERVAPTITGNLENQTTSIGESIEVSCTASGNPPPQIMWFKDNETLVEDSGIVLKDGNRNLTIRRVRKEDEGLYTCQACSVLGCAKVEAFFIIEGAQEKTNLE", "test": "phage binding screen on KDR-Fc; class legend in paragraph 246", "values": [
      {"binder": "RNWCEEDWYYCFIT", "note": "[phage isolate RNWCEEDWYYCFIT]", "binding result": "binds"},
      {"binder": "SNWCEEDWYYCYIT", "note": "[phage isolate SNWCEEDWYYCYIT]", "binding result": "binds"},
      {"binder": "VNWCEEDWYYCWIT", "note": "[phage isolate VNWCEEDWYYCWIT]", "binding result": "binds"},
      {"binder": "PDWCEEDWYYCWIT", "note": "[phage isolate PDWCEEDWYYCWIT]", "binding result": "binds"},
      {"binder": "PDWCAADWYYCYIT", "note": "[phage isolate PDWCAADWYYCYIT]", "binding result": "binds"},
      {"binder": "PEWCEVDWYYCWLL", "note": "[phage isolate PEWCEVDWYYCWLL]", "binding result": "binds"},
      {"binder": "PTWCEDDWYYCWLF", "note": "[phage isolate PTWCEDDWYYCWLF]", "binding result": "binds"},
      {"binder": "SKWCEQDWYYCWLL", "note": "[phage isolate SKWCEQDWYYCWLL]", "binding result": "binds"},
      {"binder": "VWECAKTFPFCHWF", "note": "[phage isolate VWECAKTFPFCHWF]", "binding result": "binds"},
      {"binder": "WVECWWKSGQCYEF", "note": "[phage isolate WVECWWKSGQCYEF]", "binding result": "binds"},
      {"binder": "WVECWWKYGQCYEF", "note": "[phage isolate WVECWWKYGQCYEF]", "binding result": "binds"},
      {"binder": "WIQCDMETGLCTHG", "note": "[phage isolate WIQCDMETGLCTHG]", "binding result": "binds"},
      {"binder": "WVECFMDTGACYTF", "note": "[phage isolate WVECFMDTGACYTF]", "binding result": "binds"},
      {"binder": "SVECFMDTGACYTF", "note": "[phage isolate SVECFMDTGACYTF]", "binding result": "binds"},
      {"binder": "WLECYAEFGHCYNF", "note": "[phage isolate WLECYAEFGHCYNF]", "binding result": "binds"},
      {"binder": "WLECYTEFGHCYNF", "note": "[phage isolate WLECYTEFGHCYNF]", "binding result": "binds"},
      {"binder": "WIQCNSITGHCTSG", "note": "[phage isolate WIQCNSITGHCTSG]", "binding result": "binds"},
      {"binder": "WIECYHPDGICYHF", "note": "[phage isolate WIECYHPDGICYHF]", "binding result": "binds"},
      {"binder": "GVECYKHSGMCRSW", "note": "[phage isolate GVECYKHSGMCRSW]", "binding result": "binds"},
      {"binder": "GVWCDMVTGWCYHG", "note": "[phage isolate GVWCDMVTGWCYHG]", "binding result": "binds"},
      {"binder": "WIECHYKTGHCIHS", "note": "[phage isolate WIECHYKTGHCIHS]", "binding result": "binds"},
      {"binder": "DFNCKMIDGFCLLK", "note": "[phage isolate DFNCKMIDGFCLLK]", "binding result": "binds"},
      {"binder": "WIQCDRKAGRCSRG", "note": "[phage isolate WIQCDRKAGRCSRG]", "binding result": "binds"},
      {"binder": "TITCWMDTGHCMHE", "note": "[phage isolate TITCWMDTGHCMHE]", "binding result": "binds"},
      {"binder": "GINCYPATGKCQMG", "note": "[phage isolate GINCYPATGKCQMG]", "binding result": "binds"},
      {"binder": "WTECHYATGKCHSF", "note": "[phage isolate WTECHYATGKCHSF]", "binding result": "binds"},
      {"binder": "LNICKEDWYYCFLL", "note": "[phage isolate LNICKEDWYYCFLL]", "binding result": "binds"},
      {"binder": "GITCYSATGKCQMW", "note": "[phage isolate GITCYSATGKCQMW]", "binding result": "binds"},
      {"binder": "WVQCASDTGKCIMG", "note": "[phage isolate WVQCASDTGKCIMG]", "binding result": "binds"},
      {"binder": "TGNCQEDWYYCWYF", "note": "[phage isolate TGNCQEDWYYCWYF]", "binding result": "binds"},
      {"binder": "KELCEDDWYYCYLM", "note": "[phage isolate KELCEDDWYYCYLM]", "binding result": "binds"},
      {"binder": "HWECYSDTGKCWFF", "note": "[phage isolate HWECYSDTGKCWFF]", "binding result": "binds"},
      {"binder": "GITCYSDTGKCFSF", "note": "[phage isolate GITCYSDTGKCFSF]", "binding result": "binds"},
      {"binder": "AVTCWALTGHCVEE", "note": "[phage isolate AVTCWALTGHCVEE]", "binding result": "binds"},
      {"binder": "YVDCYYDTGRCYHQ", "note": "[phage isolate YVDCYYDTGRCYHQ]", "binding result": "binds"},
      {"binder": "LVMCISPEGYCYEI", "note": "[phage isolate LVMCISPEGYCYEI]", "binding result": "binds"},
      {"binder": "LIECYAHTGLCFDF", "note": "[phage isolate LIECYAHTGLCFDF]", "binding result": "binds"},
      {"binder": "HWWCAFQPQECEYW", "note": "[phage isolate HWWCAFQPQECEYW]", "binding result": "binds"},
      {"binder": "HYECWYPEGKCYFY", "note": "[phage isolate HYECWYPEGKCYFY]", "binding result": "binds"},
      {"binder": "WYWCHHIGMYCDGF", "note": "[phage isolate WYWCHHIGMYCDGF]", "binding result": "binds"},
      {"binder": "WEWCPIDAWECIML", "note": "[phage isolate WEWCPIDAWECIML]", "binding result": "binds"},
      {"binder": "PNTCETFDLYCWWI", "note": "[phage isolate PNTCETFDLYCWWI]", "binding result": "binds"},
      {"binder": "WIICDGNLGWCWEG", "note": "[phage isolate WIICDGNLGWCWEG]", "binding result": "binds"},
      {"binder": "GEQCSNLAVACCST", "note": "[phage isolate GEQCSNLAVACCST]", "binding result": "binds"}
    ]},
    {"target": "T1, human KDR-Fc fusion (R&D Systems …)", "test": "phage binding screen on KDR-Fc; class legend in paragraph 246", "remark": "another data set of the same source", "values": [
      {"binder": "YPWCHELSDSVTRFCVPW", "note": "[phage isolate YPWCHELSDSVTRFCVPW]", "binding result": "binds"},
      {"binder": "YPWCHEHSDSVTRFCVPW", "note": "[phage isolate YPWCHEHSDSVTRFCVPW]", "binding result": "binds"},
      {"binder": "SRVCWEDSWGGEVCFRY", "note": "[phage isolate SRVCWEDSWGGEVCFRY]", "binding result": "binds"},
      {"binder": "SRVCWEYSWGGEVCYRV", "note": "[phage isolate SRVCWEYSWGGEVCYRV]", "binding result": "binds"},
      {"binder": "FGECWEYFWGGEFCLRV", "note": "[phage isolate FGECWEYFWGGEFCLRV]", "binding result": "binds"},
      {"binder": "WRICWESSWGGEVCIGH", "note": "[phage isolate WRICWESSWGGEVCIGH]", "binding result": "binds"},
      {"binder": "YGVCWEYSWGGEVCLRF", "note": "[phage isolate YGVCWEYSWGGEVCLRF]", "binding result": "binds"},
      {"binder": "SSVCFEYSWGGEVCFRY", "note": "[phage isolate SSVCFEYSWGGEVCFRY]", "binding result": "binds"},
      {"binder": "SRVCWEYSWGGQICLGY", "note": "[phage isolate SRVCWEYSWGGQICLGY]", "binding result": "binds"},
      {"binder": "FSVCWEYSWGGEVCLRQ", "note": "[phage isolate FSVCWEYSWGGEVCLRQ]", "binding result": "binds"},
      {"binder": "DHMCRSPDYQDHVFCMYW", "note": "[phage isolate DHMCRSPDYQDHVFCMYW]", "binding result": "binds"},
      {"binder": "PPLCYFVGTQEWHHCNPF", "note": "[phage isolate PPLCYFVGTQEWHHCNPF]", "binding result": "binds"},
      {"binder": "WWECKREEYRNTTWCAWA", "note": "[phage isolate WWECKREEYRNTTWCAWA]", "binding result": "binds"},
      {"binder": "PAQCWESNYQGIFFCDNP", "note": "[phage isolate PAQCWESNYQGIFFCDNP]", "binding result": "binds"},
      {"binder": "GSWCEMRQDVGKWNCFSD", "note": "[phage isolate GSWCEMRQDVGKWNCFSD]", "binding result": "binds"},
      {"binder": "GWACAKWPWGGEICQPS", "note": "[phage isolate GWACAKWPWGGEICQPS]", "binding result": "binds"},
      {"binder": "ASTCVFHDHPYFPMCQDN", "note": "[phage isolate ASTCVFHDHPYFPMCQDN]", "binding result": "binds"},
      {"binder": "PDTCTMWGDSGRWYCFPA", "note": "[phage isolate PDTCTMWGDSGRWYCFPA]", "binding result": "binds"},
      {"binder": "NWKCEYTQGYDYTECVYL", "note": "[phage isolate NWKCEYTQGYDYTECVYL]", "binding result": "binds"},
      {"binder": "NWECGWSNMFQKEFCARP", "note": "[phage isolate NWECGWSNMFQKEFCARP]", "binding result": "binds"},
      {"binder": "SGYCEFESDTGRWFCSSW", "note": "[phage isolate SGYCEFESDTGRWFCSSW]", "binding result": "binds"},
      {"binder": "GGWCQLVDHSWWWCGDS", "note": "[phage isolate GGWCQLVDHSWWWCGDS]", "binding result": "binds"},
      {"binder": "DNWCEIVVEKGQWFCYGS", "note": "[phage isolate DNWCEIVVEKGQWFCYGS]", "binding result": "binds"},
      {"binder": "YPGCYETSLSGVWFCADG", "note": "[phage isolate YPGCYETSLSGVWFCADG]", "binding result": "binds"},
      {"binder": "GWCQMDAQGIWSCWAD", "note": "[phage isolate GWCQMDAQGIWSCWAD]", "binding result": "binds"}
    ]}
  ]
}
